{"source": "paper PMC12354883", "target": "5c.c7 TCR on 5c.c7 αβ TCR-transgenic CD4+ T-cells (mouse)", "experiment": "flow cytometry on cells; time curve: T-cells labeled with AF555-H57-scFV (1800 ng per 1 Mio T-cells), washed, kept on ice, at room temperature or at 37 °C; samples taken after 0, 5, 10, 30, 60 and 120 min"}
{"substance": "fluorescently labeled H57 scFV (J1), TCR β-reactive H57 single-chain fragment", "values": [{"measurement": "time after which 50% of receptor:ligand bonds are still intact, room temperature", "value": "> 3", "unit": "h"}]}
